{"source": "patent US11946041B2", "about": "“Modification of polypeptides” (BicycleRD Limited, priority 2017, dated 2024)", "key": {"[1]": {"target": "T1, CCR4 (Homo sapiens, UniProt P51679)", "T1 construct": "host or cells: CHO-K1", "T1 sequence (P51679 1-360)": "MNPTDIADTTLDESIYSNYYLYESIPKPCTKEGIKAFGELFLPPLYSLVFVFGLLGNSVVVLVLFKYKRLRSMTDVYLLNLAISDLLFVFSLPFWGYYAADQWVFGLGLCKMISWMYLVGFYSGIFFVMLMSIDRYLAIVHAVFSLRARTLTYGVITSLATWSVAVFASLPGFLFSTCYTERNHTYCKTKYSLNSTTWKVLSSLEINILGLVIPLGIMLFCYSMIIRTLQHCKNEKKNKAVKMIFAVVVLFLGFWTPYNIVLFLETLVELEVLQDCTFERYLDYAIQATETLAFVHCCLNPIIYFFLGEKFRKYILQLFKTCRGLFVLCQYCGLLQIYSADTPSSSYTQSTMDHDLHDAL", "test": "PathHunter eXpress CCR4 CHO-K1 β-Arrestin GPCR Assay, agonist format", "type": "cell-based", "experimental": "(§1) The aim of the present experiment was to analyze if if these peptides are functional using a Discoverx Assay, the Beta-Arrestin recruitment assay, to identify agonism or antagonism in the selected peptides.\n(§2) Standard protocols used: • PathHunter® eXpress CCR4 CHO-K1 β-Arrestin GPCR Assay. 100 dp (1×96-well)\n(§3) The experiment was carried using the manufacturer instructions.\nThe concentration was increased to test for response at high concentration."}, "[2]": {"target": "T1, CCR4", "test": "PathHunter eXpress CCR4 CHO-K1 β-Arrestin GPCR Assay, antagonist format with CCL22", "type": "cell-based", "experimental": "as §1, §2, §3\nWe therefore used the assay in an antagonist format, using 10 nM CCL22.\nWe repeated this experiment lowering the concentration of CCL22 from 10 nM to 1 nM to show a full inhibition curve."}}, "data": [{"sequence": "ACPLMSSVNCTAGCA [24-13-00-N001, bicyclic peptide ligand, TBMB scaffold, from CCR4 cell-based selection]", "values": [{"measurement": "Raw Data", "setting": "[1]; 0.006 nM", "value": 27634}, {"measurement": "Raw Data", "setting": "[1]; 0.02 nM", "value": 30705}, {"measurement": "Raw Data", "setting": "[1]; 0.06 nM", "value": 30335}, {"measurement": "Raw Data", "setting": "[1]; 0.17 nM", "value": 31512}, {"measurement": "Raw Data", "setting": "[1]; 0.51 nM", "value": 31217}, {"measurement": "Raw Data", "setting": "[1]; 1.5 nM", "value": 34513}, {"measurement": "Raw Data", "setting": "[1]; 4.6 nM", "value": 29431}, {"measurement": "Raw Data", "setting": "[1]; 13.9 nM", "value": 24436}, {"measurement": "Raw Data", "setting": "[1]; 41.7 nM", "value": 23071}, {"measurement": "Raw Data", "setting": "[1]; 125 nM", "value": 22524}, {"measurement": "Raw Data", "setting": "[1]; 375 nM", "value": 20081}, {"measurement": "Raw Data", "setting": "[1]; high concentration, 0.001 uM", "value": 11252}, {"measurement": "Raw Data", "setting": "[1]; high concentration, 0.003 uM", "value": 11640}, {"measurement": "Raw Data", "setting": "[1]; high concentration, 0.008 uM", "value": 12612}, {"measurement": "Raw Data", "setting": "[1]; high concentration, 0.023 uM", "value": 12684}, {"measurement": "Raw Data", "setting": "[1]; high concentration, 0.1 uM", "value": 13168}, {"measurement": "Raw Data", "setting": "[1]; high concentration, 0.2 uM", "value": 13560}, {"measurement": "Raw Data", "setting": "[1]; high concentration, 0.6 uM", "value": 12989}, {"measurement": "Raw Data", "setting": "[1]; high concentration, 1.9 uM", "value": 12391}, {"measurement": "Raw Data", "setting": "[1]; high concentration, 5.6 uM", "value": 12460}, {"measurement": "Raw Data", "setting": "[1]; high concentration, 16.7 uM", "value": 12506}, {"measurement": "Raw Data", "setting": "[1]; high concentration, 50 uM", "value": 11512}, {"measurement": "Raw Data", "setting": "[2]; 1 nM CCL22, 0.001 uM", "value": 229814}, {"measurement": "Raw Data", "setting": "[2]; 1 nM CCL22, 0.003 uM", "value": 230497}, {"measurement": "Raw Data", "setting": "[2]; 1 nM CCL22, 0.008 uM", "value": 210841}, {"measurement": "Raw Data", "setting": "[2]; 1 nM CCL22, 0.023 uM", "value": 219415}, {"measurement": "Raw Data", "setting": "[2]; 1 nM CCL22, 0.1 uM", "value": 218869}, {"measurement": "Raw Data", "setting": "[2]; 1 nM CCL22, 0.2 uM", "value": 228712}, {"measurement": "Raw Data", "setting": "[2]; 1 nM CCL22, 0.6 uM", "value": 229977}, {"measurement": "Raw Data", "setting": "[2]; 1 nM CCL22, 1.9 uM", "value": 190843}, {"measurement": "Raw Data", "setting": "[2]; 1 nM CCL22, 5.6 uM", "value": 200574}, {"measurement": "Raw Data", "setting": "[2]; 1 nM CCL22, 16.7 uM", "value": 156536}, {"measurement": "Raw Data", "setting": "[2]; 1 nM CCL22, 50 uM", "value": 114497}, {"measurement": "Raw Data", "setting": "[2]; 10 nM CCL22, 0.001 uM", "value": 195228}, {"measurement": "Raw Data", "setting": "[2]; 10 nM CCL22, 0.003 uM", "value": 200825}, {"measurement": "Raw Data", "setting": "[2]; 10 nM CCL22, 0.008 uM", "value": 201223}, {"measurement": "Raw Data", "setting": "[2]; 10 nM CCL22, 0.023 uM", "value": 183445}, {"measurement": "Raw Data", "setting": "[2]; 10 nM CCL22, 0.1 uM", "value": 170995}, {"measurement": "Raw Data", "setting": "[2]; 10 nM CCL22, 0.2 uM", "value": 195355}, {"measurement": "Raw Data", "setting": "[2]; 10 nM CCL22, 0.6 uM", "value": 181254}, {"measurement": "Raw Data", "setting": "[2]; 10 nM CCL22, 1.9 uM", "value": 194535}, {"measurement": "Raw Data", "setting": "[2]; 10 nM CCL22, 5.6 uM", "value": 180947}, {"measurement": "Raw Data", "setting": "[2]; 10 nM CCL22, 16.7 uM", "value": 179127}, {"measurement": "Raw Data", "setting": "[2]; 10 nM CCL22, 50 uM", "value": 133745}]}, {"sequence": "ACQLTCLTPARQPGCA [24-14-00-N001, bicyclic peptide ligand, TATA scaffold, from CCR4 cell-based selection]", "values": [{"measurement": "Raw Data", "setting": "[1]; 0.006 nM", "value": 28548}, {"measurement": "Raw Data", "setting": "[1]; 0.02 nM", "value": 25603}, {"measurement": "Raw Data", "setting": "[1]; 0.06 nM", "value": 30232}, {"measurement": "Raw Data", "setting": "[1]; 0.17 nM", "value": 28531}, {"measurement": "Raw Data", "setting": "[1]; 0.51 nM", "value": 32968}, {"measurement": "Raw Data", "setting": "[1]; 1.5 nM", "value": 30785}, {"measurement": "Raw Data", "setting": "[1]; 4.6 nM", "value": 27510}, {"measurement": "Raw Data", "setting": "[1]; 13.9 nM", "value": 24521}, {"measurement": "Raw Data", "setting": "[1]; 41.7 nM", "value": 24892}, {"measurement": "Raw Data", "setting": "[1]; 125 nM", "value": 21899}, {"measurement": "Raw Data", "setting": "[1]; 375 nM", "value": 20214}, {"measurement": "Raw Data", "setting": "[1]; high concentration, 0.001 uM", "value": 10817}, {"measurement": "Raw Data", "setting": "[1]; high concentration, 0.003 uM", "value": 11788}, {"measurement": "Raw Data", "setting": "[1]; high concentration, 0.008 uM", "value": 12385}, {"measurement": "Raw Data", "setting": "[1]; high concentration, 0.023 uM", "value": 12607}, {"measurement": "Raw Data", "setting": "[1]; high concentration, 0.1 uM", "value": 12143}, {"measurement": "Raw Data", "setting": "[1]; high concentration, 0.2 uM", "value": 13151}, {"measurement": "Raw Data", "setting": "[1]; high concentration, 0.6 uM", "value": 12839}, {"measurement": "Raw Data", "setting": "[1]; high concentration, 1.9 uM", "value": 12725}, {"measurement": "Raw Data", "setting": "[1]; high concentration, 5.6 uM", "value": 12720}, {"measurement": "Raw Data", "setting": "[1]; high concentration, 16.7 uM", "value": 12239}, {"measurement": "Raw Data", "setting": "[1]; high concentration, 50 uM", "value": 13314}, {"measurement": "antagonist for CCR4", "setting": "[2]; 1 nM CCL22", "value": "antagonist"}, {"measurement": "Raw Data", "setting": "[2]; 1 nM CCL22, 0.001 uM", "value": 240299}, {"measurement": "Raw Data", "setting": "[2]; 1 nM CCL22, 0.003 uM", "value": 222439}, {"measurement": "Raw Data", "setting": "[2]; 1 nM CCL22, 0.008 uM", "value": 212749}, {"measurement": "Raw Data", "setting": "[2]; 1 nM CCL22, 0.023 uM", "value": 212035}, {"measurement": "Raw Data", "setting": "[2]; 1 nM CCL22, 0.1 uM", "value": 215827}, {"measurement": "Raw Data", "setting": "[2]; 1 nM CCL22, 0.2 uM", "value": 201484}, {"measurement": "Raw Data", "setting": "[2]; 1 nM CCL22, 0.6 uM", "value": 200525}, {"measurement": "Raw Data", "setting": "[2]; 1 nM CCL22, 1.9 uM", "value": 198268}, {"measurement": "Raw Data", "setting": "[2]; 1 nM CCL22, 5.6 uM", "value": 171795}, {"measurement": "Raw Data", "setting": "[2]; 1 nM CCL22, 16.7 uM", "value": 116828}, {"measurement": "Raw Data", "setting": "[2]; 1 nM CCL22, 50 uM", "value": 102610}, {"measurement": "Raw Data", "setting": "[2]; 10 nM CCL22, 0.001 uM", "value": 163937}, {"measurement": "Raw Data", "setting": "[2]; 10 nM CCL22, 0.003 uM", "value": 138339}, {"measurement": "Raw Data", "setting": "[2]; 10 nM CCL22, 0.008 uM", "value": 156373}, {"measurement": "Raw Data", "setting": "[2]; 10 nM CCL22, 0.023 uM", "value": 159753}, {"measurement": "Raw Data", "setting": "[2]; 10 nM CCL22, 0.1 uM", "value": 168602}, {"measurement": "Raw Data", "setting": "[2]; 10 nM CCL22, 0.2 uM", "value": 151985}, {"measurement": "Raw Data", "setting": "[2]; 10 nM CCL22, 0.6 uM", "value": 158845}, {"measurement": "Raw Data", "setting": "[2]; 10 nM CCL22, 1.9 uM", "value": 143688}, {"measurement": "Raw Data", "setting": "[2]; 10 nM CCL22, 5.6 uM", "value": 150686}, {"measurement": "Raw Data", "setting": "[2]; 10 nM CCL22, 16.7 uM", "value": 132736}, {"measurement": "Raw Data", "setting": "[2]; 10 nM CCL22, 50 uM", "value": 138731}]}]}
